Measurements from US20260217860A1 (BIOCYTOGEN PHARMACEUTICALS BEIJING, published 2026).

Target: T1, His-tagged human MUC1 protein hMUC1(24-1158)-His (human, UniProt P15941 24-1158)
T1 construct: not shown: His tag
Test: SPR, Biacore 8K, 1:1 fit;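 further: His-tagged targets captured on the chip at roughly 100 RU, antibody analytes flowed at 1 µg/mL in HBS-EP+ pH 7.4, 50 s association, 400 s dissociation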

| Binder | Kd [nM] | koff [s⁻¹] | kon [M⁻¹ s⁻¹] |
| --- | --- | --- | --- |
| E-9A6-M-11E8 (bispecific antibody, Knobs-into-holes bispecific with a common light chain; also called anti-EGFR/MUC1 bispecific antibody) heavy 1: not shown heavy 2: QVQLVQSGGGVVQPGRSLRLSCAASGFTFSSYAMHWVRQAPGKGLEWVAVISDDGINKYYADSVKGRFTISRDNSKNTLYLQMNSLRAEDSAVYYCARALPTIFGVVMYFYYGLDVWGQGTTATVSSASTKGPSVFPLAPSSKSTSGGTAALGCLVKDYFPEPVTVSWNSGALTSGVHTFPAVLQSSGLYSLSSVVTVPSSSLGTQTYICNVNHKPSNTKVDKKVEPKSCDKTHTCPPCPAPELLGGPSVFLFPPKPKDTLMISRTPEVTCVVVDVSHEDPEVKFNWYVDGVEVHNAKTKPREEQYNSTYRVVSVLTVLHQDWLNGKEYKCKVSNKALPAPIEKTISKAKGQPREPQVCTLPPSREEMTKNQVSLSCAVKGFYPSDIAVEWESNGQPENNYKTTPPVLDSDGSFFLVSKLTVDKSRWQQGNVFSCSVMHEALHNHYTQKSLSLSPGK light: not shown | 17.3 | 0.00137 | 79100 |
| E-9F3-M-11E8 (bispecific antibody, Knobs-into-holes bispecific with a common light chain; also called anti-EGFR/MUC1 bispecific antibody) heavy 1: not shown heavy 2: QVQLVQSGGGVVQPGRSLRLSCAASGFTFSSYAMHWVRQAPGKGLEWVAVISDDGINKYYADSVKGRFTISRDNSKNTLYLQMNSLRAEDSAVYYCARALPTIFGVVMYFYYGLDVWGQGTTATVSSASTKGPSVFPLAPSSKSTSGGTAALGCLVKDYFPEPVTVSWNSGALTSGVHTFPAVLQSSGLYSLSSVVTVPSSSLGTQTYICNVNHKPSNTKVDKKVEPKSCDKTHTCPPCPAPELLGGPSVFLFPPKPKDTLMISRTPEVTCVVVDVSHEDPEVKFNWYVDGVEVHNAKTKPREEQYNSTYRVVSVLTVLHQDWLNGKEYKCKVSNKALPAPIEKTISKAKGQPREPQVCTLPPSREEMTKNQVSLSCAVKGFYPSDIAVEWESNGQPENNYKTTPPVLDSDGSFFLVSKLTVDKSRWQQGNVFSCSVMHEALHNHYTQKSLSLSPGK light: not shown | 5.24 | 0.000543 | 104000 |
| E-9H2-M-11E8 (bispecific antibody, Knobs-into-holes bispecific with a common light chain; also called anti-EGFR/MUC1 bispecific antibody; E-9H2-M-llE8) heavy 1: not shown heavy 2: QVQLVQSGGGVVQPGRSLRLSCAASGFTFSSYAMHWVRQAPGKGLEWVAVISDDGINKYYADSVKGRFTISRDNSKNTLYLQMNSLRAEDSAVYYCARALPTIFGVVMYFYYGLDVWGQGTTATVSSASTKGPSVFPLAPSSKSTSGGTAALGCLVKDYFPEPVTVSWNSGALTSGVHTFPAVLQSSGLYSLSSVVTVPSSSLGTQTYICNVNHKPSNTKVDKKVEPKSCDKTHTCPPCPAPELLGGPSVFLFPPKPKDTLMISRTPEVTCVVVDVSHEDPEVKFNWYVDGVEVHNAKTKPREEQYNSTYRVVSVLTVLHQDWLNGKEYKCKVSNKALPAPIEKTISKAKGQPREPQVCTLPPSREEMTKNQVSLSCAVKGFYPSDIAVEWESNGQPENNYKTTPPVLDSDGSFFLVSKLTVDKSRWQQGNVFSCSVMHEALHNHYTQKSLSLSPGK light: not shown | 25.4 | 0.0101 | 400000 |
| E-6C4-M-11E8 (bispecific antibody, Knobs-into-holes bispecific with a common light chain; also called anti-EGFR/MUC1 bispecific antibody) heavy 1: not shown heavy 2: QVQLVQSGGGVVQPGRSLRLSCAASGFTFSSYAMHWVRQAPGKGLEWVAVISDDGINKYYADSVKGRFTISRDNSKNTLYLQMNSLRAEDSAVYYCARALPTIFGVVMYFYYGLDVWGQGTTATVSSASTKGPSVFPLAPSSKSTSGGTAALGCLVKDYFPEPVTVSWNSGALTSGVHTFPAVLQSSGLYSLSSVVTVPSSSLGTQTYICNVNHKPSNTKVDKKVEPKSCDKTHTCPPCPAPELLGGPSVFLFPPKPKDTLMISRTPEVTCVVVDVSHEDPEVKFNWYVDGVEVHNAKTKPREEQYNSTYRVVSVLTVLHQDWLNGKEYKCKVSNKALPAPIEKTISKAKGQPREPQVCTLPPSREEMTKNQVSLSCAVKGFYPSDIAVEWESNGQPENNYKTTPPVLDSDGSFFLVSKLTVDKSRWQQGNVFSCSVMHEALHNHYTQKSLSLSPGK light: not shown | 6.21 | 0.000575 | 92700 |
| E-9D2-M-11E8 (bispecific antibody, Knobs-into-holes bispecific with a common light chain; also called anti-EGFR/MUC1 bispecific antibody) heavy 1: not shown heavy 2: QVQLVQSGGGVVQPGRSLRLSCAASGFTFSSYAMHWVRQAPGKGLEWVAVISDDGINKYYADSVKGRFTISRDNSKNTLYLQMNSLRAEDSAVYYCARALPTIFGVVMYFYYGLDVWGQGTTATVSSASTKGPSVFPLAPSSKSTSGGTAALGCLVKDYFPEPVTVSWNSGALTSGVHTFPAVLQSSGLYSLSSVVTVPSSSLGTQTYICNVNHKPSNTKVDKKVEPKSCDKTHTCPPCPAPELLGGPSVFLFPPKPKDTLMISRTPEVTCVVVDVSHEDPEVKFNWYVDGVEVHNAKTKPREEQYNSTYRVVSVLTVLHQDWLNGKEYKCKVSNKALPAPIEKTISKAKGQPREPQVCTLPPSREEMTKNQVSLSCAVKGFYPSDIAVEWESNGQPENNYKTTPPVLDSDGSFFLVSKLTVDKSRWQQGNVFSCSVMHEALHNHYTQKSLSLSPGK light: not shown | 5.97 | 0.000554 | 92700 |
